This is an account of results in article PMC3794980.

Assay in all cases: radioligand binding
Test [1] deals with HLA-DR DRB1*0101 (human (endogenous in EBV transformed cell lines)).
The target of test [2] is HLA-DR DRB1*1101 (human (endogenous in EBV transformed cell lines)).
In test [3] the target is HLA-DR DRB1*1501 (human (endogenous in EBV transformed cell lines)).
The target of test [4] is HLA-DR DRB1*0802 (human (endogenous in EBV transformed cell lines)).
Test [5] deals with HLA-DR DRB4*0101 (human (endogenous in EBV transformed cell lines)).
For test [6], the target named is HLA-DR DRB3*0101 (human (endogenous in EBV transformed cell lines)).
For test [7], the target named is HLA-DR DRB1*0401 (human (endogenous in EBV transformed cell lines)).
Test [8] has as its target HLA-DR DRB1*0301 (human (endogenous in EBV transformed cell lines)).
For test [9], the target named is HLA-DR DRB1*0701 (human (endogenous in EBV transformed cell lines)).
Test [10] concerns the target HLA-DR DRB5*0101 (human (endogenous in EBV transformed cell lines)).
For test [11], the target named is HLA-DR DRB1*0901 (human (endogenous in EBV transformed cell lines)).

For the substance DENV3 Envelope 51-65 (peptide), the concentration for half-maximal inhibition (IC50) in [1] worked out at 80.6 nM; in test [2] it was 40.4 nM; in test [3], 982 nM; in test [4] it was 130 nM; in [5] it was 154 nM.
As for DENV3 NS5 780-795 (peptide), the IC50 in test [5] is 168 nM.
On to DENV3 NS5 284-300 (peptide), for which the IC50 in test [6] was 17.1 nM; in test [7], 306 nM; in test [8] it was 9.34 nM.
With DENV3 NS5 582-598 (peptide), the IC50 in test [2] was 106 nM.
In turn, DENV3 NS3 429-443 (peptide) showed a half-maximal inhibitory concentration (IC50) in test [6] of 5.72 nM.
Take DENV3 NS5 39-55 (peptide): the concentration for half-maximal inhibition (IC50) in test [6] came out at 749 nM; in test [5] it was 563 nM.
Consider DENV3 NS5 658-674 (peptide), for which the IC50 in test [4] amounted to 453 nM.
In test [9], DENV3 NS1 93-107 (peptide) gave an IC50 of 483 nM.
In the case of DENV3 NS1 193-207 (peptide), the IC50 stood at 24.3 nM in test [6] and 180 nM in test [5].
With DENV3 NS3 57-71 (peptide), the results for the IC50 in test [1] and in test [3] were 882 nM and 196 nM, respectively.
On to DENV3 NS5 511-527 (peptide), for which the values for the half-maximal inhibitory concentration (IC50) in test [10] and in test [5] were 611 nM and 56.7 nM, respectively.
For DENV3 NS3 73-87 (peptide), the IC50 in test [10] is 70.7 nM.
As to DENV3 NS3 181-195 (peptide), the IC50 in test [3] is 891 nM; in test [5], 67.8 nM.
For DENV3 NS3 313-327 (peptide), the IC50 in test [4] stood at 39.7 nM.
The substance DENV3 Envelope 261-275 (peptide) displayed an IC50 in test [9] of 82.1 nM.
Consider DENV3 Envelope 366-380 (peptide), for which the figures for the concentration for half-maximal inhibition (IC50) in test [9] and in test [4] were 552 nM and 762 nM, respectively.
With DENV3 Envelope 281-295 (peptide), the values for the 50% inhibitory concentration (IC50) in test [6], in [3] and in test [8] were 31.1 nM, 652 nM and 16.7 nM, respectively.
Regarding DENV3 Envelope 251-265 (peptide), the IC50 in test [10] is 722 nM; in [1] it was 588 nM.
For DENV3 NS3 357-371 (peptide), the IC50 in test [6] is 711 nM; in test [9], 29.5 nM; in test [10], 273 nM; in test [1], 15.9 nM; in test [3], 15.7 nM; in test [11], 100 nM. The IC50 is 759 nM in test [5] and 436 nM in [8].
The substance DENV3 NS3 345-359 (peptide) gave an IC50 in test [6] of 31.8 nM.
Regarding DENV3 Envelope 376-390 (peptide), the IC50 in test [6] was determined as 15.3 nM; in test [1] it was 476 nM; in test [3], 448 nM; in test [4] it was 84.6 nM.
Consider DENV3 NS5 495-511 (peptide), for which the IC50 in test [9] turned out to be 190 nM; in test [10] it was 723 nM; in test [7], 14.9 nM; in test [11], 448 nM.
DENV3 NS5 45-61 (peptide): the IC50 was found to be 453 nM in test [9], 449 nM in test [10], 82.5 nM in test [2] and 8.53 nM in test [5].
In turn, DENV3 NS5 336-352 (peptide) returned a half-maximal inhibitory concentration (IC50) in test [5] of 747 nM.
With DENV3 NS3 417-431 (peptide), the IC50 in test [6] came to 632 nM.
As for DENV3 NS1 241-255 (peptide), the IC50 in test [1] is 50.7 nM.
In [6], DENV3 NS1 269-283 (peptide) registered an IC50 of 71.3 nM.
In the case of DENV3 NS3 241-255 (peptide), the IC50 worked out at 525 nM in [9] and 16.7 nM in test [10].
DENV3 NS3 113-127 (peptide): the concentration for half-maximal inhibition (IC50) came to 226 nM in [1] and 17.9 nM in test [7].
In test [3], DENV3 Envelope 121-135 (peptide) had a half-maximal inhibitory concentration (IC50) of 404 nM.
For DENV3 NS5 268-284 (peptide), the IC50 in [5] was determined as 869 nM.
In turn, DENV3 Envelope 306-320 (peptide) came in with an IC50 in test [7] of 530 nM.
In the case of DENV3 NS3 209-223 (peptide), the IC50 in test [5] stood at 5.06 nM.
The substance DENV3 NS5 165-181 (peptide) returned an IC50 in test [10] of 19.9 nM.
In the case of DENV3 NS5 501-517 (peptide), the IC50 in test [9] is 17.5 nM; in [1] it was 6.98 nM; in [4] it was 836 nM; in test [7] it was 73.6 nM; in [11], 351 nM.
Turning to DENV3 NS1 233-247 (peptide), the figures for the IC50 in test [6], in [7] and in [8] were 159 nM, 87 nM and 72.6 nM, respectively.
In turn, DENV3 NS3 381-395 (peptide) returned an IC50 in [6] of 399 nM.
Consider DENV3 NS3 605-619 (peptide), for which the IC50 in test [10] was 19.6 nM; in [3], 28.1 nM; in test [4], 36.8 nM.
Regarding DENV3 NS1 297-311 (peptide), the IC50 came out at 262 nM in test [9]; 228 nM in [1]; 736 nM in test [3]; 561 nM in test [4]; 484 nM in [7].
For DENV3 NS3 389-403 (peptide), the IC50 in test [2] was 676 nM.
DENV3 NS5 301-316 (peptide) gave an IC50 in [6] of 536 nM.
Substance DENV3 NS1 305-319 (peptide) had an IC50 in [8] of 841 nM.
In the case of DENV3 NS3 105-119 (peptide), the IC50 in test [10] was found to be 177 nM; in test [1], 49 nM; in test [4] it was 175 nM; in test [11] it was 407 nM; in [5] it was 843 nM.
On to DENV3 NS1 29-43 (peptide), for which the IC50 was found to be 10.6 nM in test [6] and 22.8 nM in [10].
With DENV3 NS1 121-135 (peptide), the IC50 in test [1] worked out at 355 nM; in test [4], 45.5 nM; in test [5] it was 382 nM.
Consider DENV3 NS1 69-83 (peptide), for which, in [6], the IC50 turned out to be 50.2 nM.
As to DENV3 NS3 137-151 (peptide), the IC50 worked out at 843 nM in test [1] and 502 nM in [3].
For DENV3 NS5 642-658 (peptide), the IC50 in test [10] was 5.07 nM; in test [1], 166 nM; in [2] it was 665 nM; in test [3], 59.4 nM; in [8], 775 nM.
DENV3 NS5 330-346 (peptide) registered an IC50 in [4] of 4.01 nM.
With DENV3 NS1 133-147 (peptide), the IC50 in [6] was 62.3 nM.
DENV3 NS5 588-604 (peptide) showed an IC50 in test [2] of 124 nM.
On to DENV3 NS1 33-47 (peptide), for which the IC50 turned out to be 22.4 nM in [6] and 916 nM in test [5].
DENV3 NS3 125-139 (peptide) displayed an IC50 in [8] of 47.2 nM.
As for DENV3 NS3 413-427 (peptide), the IC50 in test [6] came out at 96.1 nM; in test [8], 261 nM.
Consider DENV3 NS5 838-854 (peptide), for which the values for the IC50 in test [6] and in [11] were 79.2 nM and 680 nM, respectively.
Turning to DENV3 NS3 349-363 (peptide), the IC50 in test [6] is 221 nM; in test [3], 608 nM.
Consider DENV3 NS3 393-407 (peptide), for which the IC50 in test [9] was 456 nM.
With DENV3 NS3 77-91 (peptide), the IC50 in [3] came to 52.1 nM; in test [11], 268 nM; in [5], 708 nM.
DENV3 NS3 409-423 (peptide): the values for the IC50 in test [6], in [10] and in test [8] were 168 nM, 50.3 nM and 470 nM, respectively.
DENV3 NS1 229-243 (peptide): the IC50 in test [6] is 733 nM; in [7], 178 nM; in test [8], 170 nM.
Regarding DENV3 NS3 53-67 (peptide), the IC50 in test [10] stood at 329 nM.
In the case of DENV3 NS5 295-311 (peptide), the IC50 in [6] worked out at 980 nM.
On to DENV3 Envelope 171-185 (peptide), for which the IC50 came to 62.6 nM in test [1], 91.2 nM in test [4] and 787 nM in [5].
In the case of DENV3 NS5 670-686 (peptide), the IC50 stood at 478 nM in test [10] and 971 nM in test [5].
Take DENV3 Envelope 236-250 (peptide): the IC50 in test [9] was determined as 560 nM; in [10], 29.6 nM; in test [1], 340 nM; in test [4], 419 nM.
In test [4], DENV3 NS5 306-322 (peptide) registered an IC50 of 70.2 nM.
Consider DENV3 NS1 313-327 (peptide), for which the IC50 in test [5] is 503 nM.
Take DENV3 NS3 109-123 (peptide): the results for the IC50 in test [1] and in test [4] were 148 nM and 557 nM, respectively.
DENV3 NS5 636-652 (peptide): the IC50 was 352 nM in test [9] and 453 nM in [3].
As to DENV3 NS3 121-135 (peptide), in test [8], the half-maximal inhibitory concentration (IC50) stood at 8.64 nM.
On to DENV3 Envelope 301-315 (peptide), for which the IC50 in test [4] came out at 58.9 nM; in test [7], 26.6 nM.
DENV3 NS5 29-45 (peptide): the IC50 in test [2] came to 289 nM.
Substance DENV3 NS1 261-275 (peptide) registered an IC50 in [5] of 666 nM.
On to DENV3 NS1 293-307 (peptide), for which the results for the IC50 in [9] and in [5] were 83.2 nM and 793 nM, respectively.
DENV3 NS5 447-463 (peptide): the IC50 in test [10] came to 25 nM.
As for DENV3 Envelope 316-330 (peptide), the IC50 was 153 nM in test [2] and 361 nM in test [3].
In test [1], DENV3 NS5 290-306 (peptide) came in with an IC50 of 299 nM.
DENV3 NS5 570-586 (peptide) yielded an IC50 in test [10] of 27.8 nM.
For DENV3 Envelope 231-245 (peptide), the concentration for half-maximal inhibition (IC50) in test [10] worked out at 24.6 nM; in test [1], 5.11 nM; in [3], 5.25 nM; in test [11], 48.4 nM.
In test [3], DENV3 NS3 69-83 (peptide) registered an IC50 of 29.5 nM.

By IC50 is commonly meant the concentration that inhibits the measured activity by half. A higher IC50 goes with a need for much substance.
